Molecular target: T1, FcRn receptor (UniProt P55899 24-365)
T1 construct: also called purified FcRn
Test: SPR
Settings: both partners purified

B1: LiVE-Longer YTE chimera (ACE-2 LVE/STR-YTE fusion protein) (Fc fusion)
chain: QSTIEEQAKLFLDKFNVEAEDLFYQSSLASWNYNTNITEENVQNMNNAGDKWSAFLKEQSTLAQMYPLQEIQELTVKLQLQALQQNGSSVLSEDKSKRLNTILNTMSTIYSTGKVCNPDNPQECLLLEPGLNEIMANSLDYNERLWAWESWRSEVGKQLRPLYEEYVVLKNEMARANHYEDYGDYWRGDYEVNGVDGYDYSRGQLIEDVEHTFEEIKPLYEHLHAYVRAKLMNAYPSYISPIGCLPAHLLGDMWGRFWTNLYSLTVPFGQKPNIDVTDAMVDQAWDAQRIFKEAEKFFVSVGLPNMTQGFWENSMLTDPGNVQKAVCHPTAWDLGKGDFRILMCTKVTMDDFLTAHHEMGHIQYDMAYAAQPFLLRNGANEGFHEAVGEIMSLSAATPKHLKSIGLLSPDFQEDNETEINFLLKQALTIVGTLPFTYMLEKWRWMVFKGEIPKDQWMKKWWEMKREIVGVVEPVPHDETYCDPASLFHVSNDYSFIRYYTRTLYQFQFQEALCQAAKHEGPLHKCDISNSTEAGQKLFNMLRLGKSEPWTLALENVVGAKNMNVRPLLNYFEPLFTWLKDQNKNSFVGWSTDWSPYADQSIKVRISLKSALGDKAYEWNDNEMYLFRSSVAYAMRQYFLKVKNQMILFGEEDVRVANLKPRISFNFFVTAPKNVSDIIPRTEVEKAIRMSRSRINDAFRLNDNSLEFLGIQPTLGPPNQPPVS
- Kd: 27 nM
